Results from US11434289B2, “Anti-GPR20 antibody and anti-GPR20 antibody-drug conjugate” (DAIICHI SANKYO COMPANY, LIMITED, priority 2017, dated 2022).
Changes are numbered by the printed parent chain.

B1: 04-079: rat anti-human GPR20 antibody; heavy chain SEQ ID NO: 12, light chain SEQ ID NO: 17 (antibody, listed as Rattus norvegicus)
heavy: MEWNWVFLFLLSVTAVVHSQVQLQQSGAELAKPGSSVKISCKASGYTFTSYYITWIKQTTGQGLKYIGYINPGSGHTNYNEKFKGKATLTVDKSSSTAFMQLSSLTPDDSAVYYCARGAGGFLRIISKFDYWGQGVMVTVSSAQTTAPSVYPLAPGCGDTTSSTVTLGCLVKGYFPEPVTVTWNSGALSSDVHTFPAVLQSGLYTLTSSVTSSTWPSQTVTCNVAHPASSTKVDKKVERRNGGIGHKCPTCPTCHKCPVPELLGGPSVFIFPPKPKDILLISQNAKVTCVVVDVSEEEPDVQFSWFVNNVEVHTAQTQPREEQYNSTFRVVSALPIQHQDWMSGKEFKCKVNNKALPSPIEKTISKPKGLVRKPQVYVMGPPTEQLTEQTVSLTCLTSGFLPNDIGVEWTSNGHIEKNYKNTEPVMDSDGSFFMYSKLNVERSRWDSRAPFVCSVVHEGLHNHHVEKSISRPPGK
light: METDRLLLWVLLLWVPGSTGDTVLTQSPALAVSLGQRVTISCRASKSVSTYMHWYQQRSGQQPKLLIYSASNLESGVPSRFSGSGSGTDFTLTIDPVKADDITNYYCQQSNELPYTFGAGTKLELKRADAAPTVSIFPPSTEQLATGGASVVCLMNNFYPRDISVKWKIDGTERRDGVLDSVTDQDSKDSTYSMSSTLSLTKADYESHNLYTCEVVHKTSSSPVVKSFNRNEC
modifications: SIGNAL (1)..(19); SIGNAL (1)..(20)
B2: 04-126: rat anti-human GPR20 antibody; heavy chain SEQ ID NO: 22, light chain SEQ ID NO: 27 (antibody, listed as Rattus norvegicus)
heavy: B1 heavy with V16E, Q24R, T54I, I56M, T60A, K65Q, I67V, A119T
light: B1 light with N72T, K98E, T103A
modifications: SIGNAL (1)..(19); SIGNAL (1)..(20)
B3: 04-046: rat anti-human GPR20 antibody; heavy chain SEQ ID NO: 2, light chain SEQ ID NO: 7 (antibody, listed as Rattus norvegicus)
heavy: B1 heavy with V16E, T54S, Y69F, V112I, S127T
light: B1 light with M52I, K98E, A99P, T103A, S110I
modifications: SIGNAL (1)..(19); SIGNAL (1)..(20)

Molecular target: T1, human GPR20 (Homo sapiens, UniProt Q99678)
T1 construct: expressed in transfected cells; host or cells: 293T cells, transient, Lipofectamine 2000
Experiment: Human GPR20-binding antibody screening by flow cytometry (hybridoma culture supernatants, transfected 293T cells)
Details: hybridoma culture supernatant; 293T cells transfected with pcDNA3.1-hGPR20 vs control pcDNA3.1; FIG. 18
Description: 293T cells were seeded in a 225-cm^2 flask (Sumitomo Bakelite Co., Ltd.) at 5×10^4 cells/cm^2, and the cells were then cultured overnight under conditions of 37° C. and 5% CO2 in DMEM medium supplemented with 10% FBS. pcDNA3.1-hGPR20 or pcDNA3.1 as a negative control was introduced into the 293T cells using Lipofectamine 2000, and the cells were further cultured overnight under conditions of 37° C. and 5% CO2. The 293T cells transfected with each expression vector were treated with TrypLE Express (Life Technologies Corp.), and the cells were washed with DMEM supplemented with 10% FBS, and then suspended in PBS supplemented with 5% FBS. The obtained cell suspension was used in flow cytometry analysis.
The binding specificity to human GPR20 of an antibody produced from hybridomas that had been determined to be positive by Cell-ELISA in Example 1)-4-2 was further confirmed by flow cytometry. The suspension of the transiently expressing 293T cells prepared in Example 1)-5-1 was centrifuged, and a supernatant was then removed. Thereafter, the cells were suspended by the addition of the culture supernatant from each hybridoma. The cells were left standing at 4° C. for 1 hour. The cells were washed twice with PBS supplemented with 5% FBS, and thereafter, the cells were suspended by the addition of Anti-Rat IgG FITC conjugate (Sigma-Aldrich Co. LLC) that had been 500-fold diluted with PBS supplemented with 5% FBS. […] The data was analyzed using Flowjo (Tree Star, Inc.). After dead cells were removed from analysis by gating out 7-aminoactinomycin D-positive cells, a histogram of the FITC fluorescence intensity of live cells was generated. Hybridomas producing human GPR20-binding antibodies (178 clones) were selected based on results where the histogram for the antibody shifted to the strong fluorescence intensity side in the 293T cells transfected with pcDNA3.1-hGPR20 compared with the 293T cells transfected with the control pcDNA3.1. […] The abscissa of FIG. 18 depicts clone No., and the ordinate thereof depicts the amount of the antibody bound based on MFI (mean fluorescence intensity).

T1 sequence (Q99678 whole entry): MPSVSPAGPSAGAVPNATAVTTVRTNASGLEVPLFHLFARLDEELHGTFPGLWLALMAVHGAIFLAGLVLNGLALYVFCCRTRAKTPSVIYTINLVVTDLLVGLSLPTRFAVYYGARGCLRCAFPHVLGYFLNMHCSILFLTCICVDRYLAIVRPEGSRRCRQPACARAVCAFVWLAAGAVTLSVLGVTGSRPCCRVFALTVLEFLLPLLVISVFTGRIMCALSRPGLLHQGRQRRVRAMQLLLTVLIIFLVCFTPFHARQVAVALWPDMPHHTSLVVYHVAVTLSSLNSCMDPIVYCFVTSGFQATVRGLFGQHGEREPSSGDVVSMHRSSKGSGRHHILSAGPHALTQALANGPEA

Row | Molecule | binding to human GPR20 (amount of the antibody bound based on MFI)
1 | B1 | specifically binding to human GPR20
2 | B2 | specifically binding to human GPR20
3 | B3 | specifically binding to human GPR20
